Laboratory results published in the DeepSol protein solubility set.

Experiment: soluble on expression in E. coli; label from the status in PepcDB or PDB records

Sequence | soluble on expression in E. coli
MYQEIKGVRVWGDPIENAVDQAVTCAQHGDVEQVLLMADHHKGYSQPVGGVVVYRNQISPSGVGYDIACGNKAVKTNVKYVDIKDQLSKIMDELAQSISFGVGRSNREKVEHDLFDDSDWSVYQEIGKQEHDNLKTLAKKQLGTVGSGNHFVDLFVEEATGDVWVANHFGSRGFGHKTASGFMNLAKGVKFSDKVKGERMEDAPTLLDLDSEIGDMYYRAMQLAGKYAYAGRDYVIQKVLDILQAEAVFSVHNHHNFAWKETHNGEEYVIVRKGATPSAPNQWGFIGGSMGDISVIVRGVDSEENRDAFYSTVHGAGRIMSRTEAAGKMNWKTRTRSGGKITPDQMKQAIKEYGVELRGGGTDESPFVYKNLADVLEAHKQTLSIEHVLKPIGVCMAGEGEFDPYKDMAGDPLEHHHHHH | soluble
MSLMQEETFYSVRMRASMNGSHEDGGKHISGGERLIPFHEMKHTVNALLEKGLSHSRGKPDFMQIQFEEVHESIKTIQPLPVHTNEVSCPEEGQKLARLLLEKEGVSRDVIEKAYEQIPEWSDVRGAVLFDIHTGKRMDQTKEKGVRVSRMDWPDANFEKWALHSHVPAHSRIKEALALASKVSRHPAVVAELCWSDDPDYITGYVAGKKMGYQRITAMKEYGTEEGCRVFFIDGSNDVNTYIHDLEKQPILIEWEEDHDSEGHHHHHH | soluble
MELGKQRPVVYVVSDSVGETAELVVKAAASQFSGAGIEVRRIPYVEDKETVDEVIQLAKQADAIIAFTLVVPGIRTYLLEKATEAKVETVDIIGPMLEKISSLTKEEPRYEPGIVYRLDEDYFRKVEAIEFAVKYDDGRDPRGIVRADLVLIGVSRTSKTPLSQYLAHKRLKVANVPLVPEVEPPEELFKLSPKKVIGLKISPEQLNGIRAERLKTLGLKSQANYANIDRIKEELAYAEGIMKRIGCPVIDVSNKAVEETANLISSMFQKMAGDPLEHHHHHH | soluble
MNMLKKSLTALVLLGGLGAPVVAHATPAAAEAASEVQVAWVDGKVRISWTEAAGIPNTVSLELPGKPRKTLGTTTAAGDNQLVVEPSALEPTNDPASVAKIVVSDPSTAEARSAGFDRYVRGATPLAPVMTGTGVLNWQFPADTAVDSTPNDPLDVDAPVQFVPKLTLGVTPGTTDECKTVVLPATTAPYGSVPKQISPYALELLNVSEWGQSKLAGVRVRSSSTAFSTPASTGYGTRITMTGSILLQTLQNPAAGNCEDVTDTAALGGHELALQAREDGGAWYAVGVSKTDAQGKYQFVVSNPGARQYRAVLKTAAASGAAHYQSISAERSVRATPQVIDASFADDTITLGQQPNARVTVAPYGSHQVALQFKNASGQWQGLMYRTLSAGRAESGPFAFSRLGDTQFRWWVASSTSTTGLPVDAGYTYPFTLHVS | not soluble
SDHFNAPVGMLEAITSVEGVDRVVPTIEMTGVAKTDSAFAGILLMGDNSLRTRNPLFGQTVSGNYPSFSSADTVPNPILLPQVTADKLHLKIGDKLRIYFAGTERMRLRAFTVAGVYSGGKMDMPVGLVSADVLRRVGGLGADDVSRLLIYASDPDETDLIVTRVFDRLSETLYVGEQRLTINTATELNPMIMDWLSALDTN | not soluble
MSLADPGREGHLEQRILQVLTEAGSPVKLAQLVKECQAPKRELNQVLYRMKKELKVSLTSPATWCLGGTDPEGEGPAELALSSPAERPQQHAATIPETPGPQFSQQREEDIYRFLKDNGPQRALVIAQALGMRTAKDVNRDLYRMKSRHLLDMDEQSKAWTIYRPEDSGRRAKSASIIYQHNPINMICQNGPNSWISIANSEAIQIGHGNIITRQTVSREGHHHHHH | not soluble
MSLSKIFVTGATGLIGIKLVQRLKEEGHEVAGFTTSENGQQKLAAINVKAYIGDILKADTIDQALADFKPEIIINQITDLKNVDMAANTKVRIEGSKNLIDAAKKHDVKKVIAQSIAFMYEPGEGLANEETSLDFNSTGDRKVTVDGVVGLEEETARMDEYVVLRFGWLYGPGTWYGKDGMIYNQFMDGQVTLSDGVTSFVHLDDAVETSIQAIHFENGIYNVADDAPVKGSEFAEWYKEQLGVEPNIDIQPAQPFERGVSNEKFKAQGGTLIYKTWKDGMNPIKEGHHHHHH | soluble
MNVSVERYQRRKYVSQENSPMLYYVRQKSGTVRVMDVEKLADAIEANSSLTAGDVKHAIEAFVEQLRLSLTQGDKVKIDGLGTFHITLCSEGTEKEKDCTVRSIRKVNVRFVADKALHLVNASHTSTRSENNVEFVLASKGDTEGGNAGGGNTGGGGNSGGGGNSGGDEEAPDPTV | not soluble
NLYHTPIFSVDREYEWLEKRHDKMLFAFDIPIHLTRRVLLVAGEAHTGGTMEAFTRYLRSIGVGEIKTCVFYKQSICTQHIDFWGMEGENTILMPWQNAQSIRDSLSKAQANQLKKIQRQRDC | not soluble
MSLVEIVNRPYAKAFEAFATARPEVLCLSADLTSSCEVDGFRDRHPEQFLTLGMAEQNMLSFAGGLAMQGFRPFIHTFSVFLYRRPYDQLINSIAYSNRKVRLMGFLPGITTPGGITHQAIEDIAVLRAVPNMTILETGDATEVETVLEVADSIDGPVYVRILRGEVPRLFSTPFEFNKLRTLSEGDDILVVSSGVCTEEALRATGPLAARGVGIHHLHASTLKPFDKDGLLRAARGKKGIVTLENHTIIGGLGSLVSEILAEEGLGIRLKRLGLNDTFAHGASKPYLMKKYGLDAGALVSAIEELVGKNLAIGEEELVEVRLDHVHSAQKAEALEGHHHHHH | not soluble
MNSKVGCLMAILLLAGCAKQTPPPQANNGWLKKTPQGNSLNVAKSSAGSTTVAYSDVIKQAASHYGVDETLIKAIIQVESGYNPDVVSRSNAVGLMQIKASTAGRDAYRMKGRNGQPSSRELKDPVKNIDIGAAYINILQNQQLAGINDPQTLRYATIVSYANGAGAMLRTFSSDKRLAVNKINSLSPNEFYQHIQKKHPAAQAPRYLWKVDTAYRAMSE | not soluble
MFHLKTFSDMVESIQITSFHNAELLNFMIDEVKDARTLSKNEIIPTLDELDKVLATFKKGIAMNKTSEYSEKITALDAVRSKAFRNFIGCIQGETHRPEEDHREAARRLFILLKPYNNLNRKSYRNKTELMYKLVEVLRSDKHASDVQTVNVSAWIDKMDNANKAFDQLFDLRDNTEGERLIINNREMRHRIRLHYNRLLEIIEALLVLHADRPLEGFVGRHNERVAKMKALFALRASIGTKSTREKRDVLRSLAIGLGWSLPAGQEDFEFFAGTRILHPTEHRWYCLGKKDNIITLVLYKGKKKQSSSSSSNSSVDLPDLPAPPPSQPDNGSSGGGGEQGGGGSGGL | not soluble
MSLVTLADANPAQLAPFAGGAFEVAPLDVADEAALTVFLTRQDIVVSACPYFLNKTIARVAVATGTHYFDLTEDVETTAFIKALGETADVALVPQCGLAPGFICILGADMAARFERVKSVKMRVGALPLYPTNALSYNVTWSVDGLINEYCNPCEIVFEGRPTLVPALEGLEHVMIDGVSYEAFNTSGGLGTLTETLDGRVSDLSYKTLRYPGHAEIMKLLLRGLELADDRETLRRILNRAAPFTRKDVVVVFVEGHHHHHH | not soluble
MNRICELLGIEHPIISGGMVWCSGWKLASAVSNCGGLGLIGAGSMHPDNLEHHIRSCKAATDKPFGVNVPLLYPEMDKIMEIIMREHVPVVVTSAGSPKVWTAKLKAAGSKVIHV | not soluble
MGSDKIHHHHHHMKIMVSEQFQCFMASLGVDLNSLLEAAGINKVVWQEQLMLSDVEYWQLMNEFDNQLTDEMILSLGNITNINTFMPSFFAALAAKNGEQAIARMATYKSLAGPVHLEIVTKPDIVNIHILGNSLGVELPRFTIMTEQLLLISLLRVGTGKLIKPISVGSKYPYGDQIDAVMGIRPQQLADNCIQFQVTDLQRAFISANNSMWAFLQPGLDQQKLAIEHNQSLLATVQALLLKKIPSGSFSIDEIATSLNLSKRTLQRHLSTLSTTFNDEVQIARRTLVVPLMKDQSLNLIEISYLLGYSDPESFSRAFKKWFHQSPSVYRQQSLGMFKN | not soluble
MGSDKIHHHHHHMTEGGFDPALLVQSWPKPSKPRPIVTFGSGSIVGDAHFPAYRKAGFPIAGLYDPDQAKATTLADKWGVTAFRSVGEAAAVQDAIFDLATPPGRHAEILKDLPDGAVALIQKPMGNYLGEATEILEICRAKNLKAAVNFQLRFAPMMLALKDAIAKGWLGEIVDFDAWLALATPWELWEFLLKAPRVEIAMHSIHYLDLIRQLLGDPKGVHAKTLGHPNHKVAQTRTSAILDYGDTVRCALSINHDHKFGRRHQACEFRICGTEGAAYLKLGLNLDYPRGEPDILEIHPKGGTDWIAVPLAGEWFPDAFVGRMANVQRFASGEDDELVSSVEDAWSTMALVEAAYKSSAAPATLIAERP | not soluble
MCDSHQKEEDNANTSERALFFNYHEFSYSFYEDLGSEDAKPTEHDEDHKLCITHFPNVYAARGSAEFQVTRVVRVPRRFDESRSSLETPQFSTQLPGSEPAAIVGDDGTSFVRCGRYDIGDHVFGCSSVSPLSEYLSAAELAEVVHRVNGFLLREEGEVFGWRNLSGLLLDMLTGGLWSWVLGPLLSRPVFQESLALEQYVAQLNSPGGLLHERGVRLVLPRRSGCLSLDFVVPRPK | not soluble
AVPTVVGIPDGTAVVGRSFRVSIPTDLIASSGEIIKVSAAGKEALPSWLHWDPHSHILEGLPLDTDKGVHYISVSAARLGANGSHVPQTSSVFSIEVYPEDHNEPQSVRAASSDPGEVVPSACAADEPVTVLTVILDADLTKMTPKQRIDLLNRMQSFSEVELHNMKLVPVVNNRLFDMSAFMAGPGNAKKVVENGALLSWKLGCSLNQNSVPDIRGVETPAREGAMSAQLGYPVVGWHIANKKPT | soluble
SAKGGKGPKGKKITLNVAKNCIKITFDGRKRLDLSKMGITTFPKCILRLSDIDELDLSRNMIRKIPDSIAKFQNLRWLDLHSNYIDKLPESIGQMTSLLFLNVSNNRLTTNGLPVELNQLKNIRTVNLGLNHLDSVPTTLGALKELHEVGLHDNLLTTIPASIAKLPKLKKLNIKRNPFPNADESEMFVDSIKRLENLYLVEEKDMCSSCLQRCQQARDKLNKIKSMAPSAPRKALFSNLVSPNSTAKDAQEEWR | soluble
MALMYPFHVAQPPLNWSEHLWVSEVSPAKESFITTICEHRQAQWDNQDLLRHLQDSVAILTREDQRHVNAVHAAANMPANP | not soluble
MTVEERSNTAKVDILGVDFDNTTMLQMVENIKTFFANQSTNNLFIVTANPEIVNYATTHQAYLELINQASYIVADGTGVVKASHRLKQPLAHRIPGIELMDECLKIAHVNHQKVFLLGATNEVVEAAQYALQQRYPNISFAHHHGYIDLEDETVVKRIKLFKPDYIFVGMGFPKQEEWIMTHENQFESTVMMGVGGSLEVFAGAKKRAPYIFRKLNIEWIYRALIDWKRIGRLKSIPIFMYKIAKAKRKIKKAK | not soluble
MKKIATATIATAGIATFAFAQHDADAAENNNSGYNPNDPSSYSYSYTIDQQGQYHYTWQGNWNPSNSDQGHTSNGYSNANSTNNNATQSYTTNNQGTGGKGAVSHSTSNSNVKVSTTSAPSNSNGSNSISNTSGSSNNLYTAGQCTYYVYDKVGGKIGSTWGNANNWASAAAASGYTVNNSPASGSVLQSTAGGYGHVAYVENVNSDGSINVSEMNYGQGAGVVTSRTISASEASGYNYIH | not soluble
